# Target: T1, glycoprotein B of HSV-1 (gB-1) (HSV-1, UniProt P10211 31-730)
# Assay: Luminex multiplex assay on gB-1-conjugated microspheres
# Method: The gB-1 binding of the antibodies was determined by Luminex multiplex assay. Mixtures of antigen (gB-1)-conjugated microspheres (1,000 counts each) were added to each well of 96-well filter plates (Millipore). […] Samples were diluted in PBS containing 1% cow milk, 1% BSA, 0.05% Tween 20 and 0.05% NaN₃. After washing, PE goat anti-mouse IgG was added to the plates and incubated for 1 hour at room temperature with mild agitation. After washing, microspheres were resuspended in PBS containing 1% BSA, 0.05% Tween 20 and 0.05% NaN₃ and fluorescent signals from each microsphere were measured in a Bio-Plex® 3D machine.
row,Binder,binding result
1,"22D10 (antibody, V domains shown, Recombinant mouse IgG (made as IgG1 and IgG2c)) VH: DVQLQESGPALVKPSQTVSLTCTVTGYSITNGNHWWNWIRQVSGSKLEWLGYIRSSGSSDSNPSLKSRISITRDTSKNQLFLHLNSMTTEDIATYYCARGGGLRHYFDYWGQGTTLTVSS VL: DIQMTQSPASLSASVGDTVTITCRASGNIHNYLAWYHQKQGKSPQLLVYHAETLTDGVPSRFSGSGSGTQYSLKINSLQPEDFGSYYCQHFWSTPYTFGGGTKLEIKR",no binding
2,"33B8 (antibody, V domains shown, Recombinant mouse IgG (made as IgG1 and IgG2c)) VH: EVKLVESGGGLVQPGGSLSLSCATSGFTFTDYYMNWVRQPPGKALEWLGFIRNKANGYTTEYSASVKGRFTISRDNSQSILYLQMNSLRAEDSATYYCACGNYVGYAMDYWGQGTSVTVSS VL: DIVMSQSPSSLAVSAGEKVTMSCKSSQSLLNSRTRKNYLAWYQQKPGQSPKLLIYWASTRESGVPDRFTGSGSGTDFTLTISSVQAEDLAVYYCKQSYNLYTFGGGTKLEIKR",no binding

# Target: T1, glycoprotein B of HSV-1 (gB-1)
# Assay: Luminex bead competition on gB-1; competitor BMPC-23 human IgG at 2 ng/ml
row,Binder,percent inhibition at 222 ng/ml
1,"HSV010-4 (antibody, V domains shown, Mouse monoclonal IgG) VH: QVQLKESGPGLVAPSQSLSITCTVSGFSLSRHDVSWVRQPPGKGLEWLGVIWGDGSTNYHSALISRLSISKDNSKSQVFLKLNSLQNDDTATYYCAKEDYGIFPYWGQGTLVTVSA VL: DIKMTQSPSSMYASLGEKVTITCKASQDISSYLSWFQQKPGKSPKTLIYRANRLVDGVPSRFSGSGSGQDYSLSISSLDYEDMGIYYCLQYDEFPLTFGAGTKLELKR",> 95%
2,"HSV010-7 (antibody, V domains shown, Mouse monoclonal IgG) VH: QVQLQQSGPELVKPGASVKLSCKASGYTFTNYDINWVKQRPGQGLEWIGWIYPRDGSTKYNEKFKGKATLTIDTSSSTAYMELHSLTSEDSAVYFCARGIFYVNYDVYWGQGTLVTVSA VL: DIQMTQSSSFLSVSLGGRVTITCKASDHINNWLAWYQQKPGHAPRLLISGAASLETGVPSRFSGSGSGKDYTLTITSLQTEDVATYYCQQYWSSPLTFGGGTKLELKR",> 90%
3,"HSV010-34 (antibody, V domains shown, Mouse monoclonal IgG) VH: EVQLVESGGGLVQPGESLKLSCESNEYEFPSHDMSWVRKTPEKRLELVAAINSDGGSTYYPDTMERRFIISRDNTKKTLYLQMSSLRSEDTALYYCARHSSGYVLDYWGQGTSVTVSS VL: DIQMTQSSSYLSVSLGGRVTITCKASDHINHWLAWYQQKPGNAPRLLISGATSLETGVPSRFSGSGSGKDYTLSIASLQTEDVATYYCQQYWSTPYTFGGGTKLEIKR",> 80%
4,"HSV010-28 (antibody, V domains shown, Mouse monoclonal IgG) VH: QIQLVQSGPELKKPGETVKISCKASGYTFTTYGMSWVKQAPGKGLKWMGWINTYSGVSTYADDFKGRFAFSLETSASTAYLQINNLKNEDTATYFCAQVNYAMDYWGQGTSVTVSS VL: DIVMTQSHKFLSTSVGDWVTITCKASQDVSTAVAWFQQKPGQSPKVLIYSASYRYTGVPDRFTGSGSGTDFTFTISSVQAEDLAVYYCQQHYSTPRTFGGGTKLEIKR",30%

# Reference: patent publication US20220162291A1 (DUKE UNIVERSITY, published 2022)
